This is an account of results in paper PMC10873642.

The test deals with α-synuclein, 140-residue isoform (αSyn-140) (human) (UniProt P37840).

Consider “α-synuclein splice isoform αSyn-112 (lacking exon 5) (from UniProt P37840-2 1-112) (natural protein)”, for which the decrease in aggregation half-time (t1/2) by ThT fluorescence of 90% (45 µM) αSyn-140 co-incubated with 10% (5 µM) αSyn-112 monomers, against 100% (50 µM) αSyn-140 is 25%.
